The data set is described as follows: soluble on expression in E. coli; label from the status in PepcDB or PDB records.
Turning to “MSLADTIIKNAKIVDVYNARIIEGTLAIADSRFLGIDAAYTADNVINAHGQYVVPGLIDPHIHIESANVSPAVFGSLVTPHGTTTILADPHEIVNVAGMRGLEYMVASAKNTALDIKYTMPSCVPAANPTLETSGAVITADEIKQSYDQGLTYGLAEFMNYPGVVNADDGVLDELLVSLNARKMIDGHSPALHGQGLNAYAAAGVHNDHECTQVDEMLDRISRGMYVYLRYGTVSKNMPTLLKGVTPQNARFCCLCGDDLQSVTLRETGHLDESIRVAIQNGIDPLTAIQMATINTAQCTGLSDRGGIAPGLKADFLLVDDLEHFNVNQTFIDGQKIAANGAYLLPTDDSVAGFDDLLETVHLDNFSADQLKLNLTSDKAHVIGLQSISRTQNLVLPVAHDAEGDFHYKPSEDIVKVAVVERHHLTGNVGVGLLSGFGLQNGAIATSIGHDSHNLVVVGTNDADMVVAIDALKACQGGGVAVQNGQVIATLPFVIGGLMSTEPIDSLIAHQKAFNTICHEQLNVTAQFDPIMKLGAMPLDVIPNLRITDKGLVDVTKFEIIDINAEGHHHHHH”, the “soluble on expression in E. coli” value was “soluble”.

Consider “MGFLEDKKRTLMNLELAIREGLVDEEIIPILNKINEIDNYYTTSSCIGRVGIMEIPKDKNPKLYSRWLGKWHHYASYDELFNALKNKKEGYIVFVMNSPILHIACKDIESAKKMLELAIHSGLKASSIKSISDKRVIVEILTTYKVDTPIGEDGEIFVDNNYLKFLLDYSNSKLKRAREILMRWANRLDELKK”, for which the “soluble on expression in E. coli” value is “soluble”.

For “MESCITVIGERDVVLGFRLLGIQHTIIAEGKDLLKKFLEVFQNPQCNIIIVSENVKNMMDKRTLRSVEISSKPLVVFIPLPGVREEETIEEMAKRILGIDIGNVLEHHHHHH”, the “soluble on expression in E. coli” value is “not soluble”.

As for “MNSLRPELLELTPQALTALSNAGFVKRSLKELENGNVPEISHENSALIATFSDGVRTQLANGQALKEAQCTYGASGMCRHRVMLVLSYQRLCATAQPTGKEEEWDPAIWLEELATLPDATRKRAQALVAKSITIELFCAPGEIPSARLPMSDVRFYSRSSIRFARCDCIEGTLCEHVVLAVQAFVQAKAQQAELTHLIWQMRSEHVTSSDDPFASEEGKTCRQYVQQLSQALWLSGISQPLIHYEAAFSRAQQAAERCSWRWVSESLRQLRASVDAFHARASHYHAGECLRQLAALNSRLNCAQEMARSDSVGEVPPVPWRTVVGSGIAGEAKLDHLRLVSLGMRCWQDIEHYGLRIWFTDPDTGSILHLSRSWPRSEQEDSPAATRRLFSFQAGALAGGQIVSQAAKRSADGELLLATRNRLSSVVPLSPDAWQMLSAPLRQPGIVALREYLRQRPPACIRPLNQVDNLFILPVAECISLGWDSSRQTLDAQVISGEGEDNLLTLSLPASASAPYAIERMAALLQQTDDPVCLVSGFVSFVDGQLTLEPQVMMTKTRAWALDAETAPVVVSLPSASVLPVPSTAHQLLMRCQALLIQLLHNGWRYQEQSAINQAELLANDLTAVGFYRLAHVLAQFRNTESEARVEAMNNGVLLCEQLFPMLQQQG”, the “soluble on expression in E. coli” value is recorded as “not soluble”.

On to “MEHKIGRGLLLGGLLSRFAGFLQSSEESLTSSFASYSSSFFLLTNTRDKRRSERTHTYMQVAQIICAHGATISTTRATLQRAPQSLLATSPDATSDSDDKIVRILVEALRRSDMSIIVSESFDQWARLAVEAKRLGLISFVEAACPSTISISCHAALSTGRINPEVTFRKVHNIHFMAQKTTGKAFASSNPEPVKGTTTSPFFLLSFFFPFFCSFLLRFSPINFPLLLLMNTAIGEYVLRIVVSGKVIMCRAVFGDSLNECRDGGGTDFEMDRYTSR”, for which the “soluble on expression in E. coli” value is “not soluble”.

Regarding “MKLNKQNLTQLAPEVKLPAYTLADTRQGIAHIGVGGFHRAHQAYYTDALMNTGEGLDWSICGVGLRSEDRKARDDLAGQDYLFTLYELGDTDDTEVRVIGSISDMLLAEDSAQALIDKLASPEIRIVSLTITEGGYCIDDSNGEFMAHLPQIQHDLAHPSSPKTVFGFICAALTQRRAAGIPAFTVMSCDNLPHNGAVTRKALLAFAALHNAELHDWIKAHVSFPNAMVDRITPMTSTAHRLQLHDEHGIDDAWPVVCEPFVQWVLEDKFVNGRPAWEKVGVQFTDDVTPYEEMKIGLLNGSHLALTYLGFLKGYRFVHETMNDPLFVAYMRAYMDLDVTPNLAPVPGIDLTDYKQTLVDRFSNQAIADQLERVCSDGSSKFPKFTVPTINRLIADGRETERAALVVAAWALYLKGVDENGVSYTIPDPRAEFCQGLVSDDALISQRLLAVEEIFGTAIPNSPEFVAAFERCYGSLRDNGVTTTLKHLLKKPV”, the “soluble on expression in E. coli” value was “soluble”.

With “MLISIESKEHYRILCIDGGSTDQTIPMIERLQRELKHISLIQLQNASIATCINKGLMDIKMTDPHDSDAFMVINPTSIVLPGKLDRLTAAFKNNDNIDMVIGQRAYNYHGEWKLKSADEFIKDNRIVTLTEQPDLLSMMSFDGKLFSAKFAELQCDETLANTYNHAILVKAMQKATDIHLVSQMIVGDNDIDTHATSNDEDFNRYIIEIMKIRQRVMEMLLLPEQRLLYSDMVDRILFNNSLKYYMNEHPAVTHTTIQLVKDYIMSMQHSDYVSQNMFDIINTVEFIGENWDREIYELWRQTLIQVGINRPTYKKFLIQLKGRKFAHRTKSMLKRLEHHHHHH”, the “soluble on expression in E. coli” value is reported as “not soluble”.

For the sequence “MSLTIKVFSPKYPTELEEFYAERIADNPLGFIQRLDLLPSISGFVQKLREHGGEFFEMREGNKLIGICGLNPINQTEAELCKFHINSAYQSQGLGQKLYESVEKYAFIKGYTKISLHVSKSQIKACNLYQKLGFVHIKEEDCVVELGEETLIFPTLFMEKILSEGHHHHHH”, the “soluble on expression in E. coli” value is on record as “soluble”.

Consider “MKGGIVHSDGSYPKDKFEKINGTWYYFDSSGYMLADRWRKHTDGNWYWFDNSGEMATGWKKIADKWYYFNEEGAMKTGWVKYKDTWYYLDAKEGAMVSNAFIQSADGTGWYYLKPDGTLADRPEFTVEPDGLITVK”, for which the “soluble on expression in E. coli” value is “soluble”.

Turning to “MSDSNTSSLPRAAQLEPDAAPAVAVLQQALQWQVIFWSGEATDRDRMRWQSWLAADPAHARAWAQVQRTDEQLQTLASPAAEVLRSADARRCKARRTVLGMAGLLAGAGIMGCGLRQTAQWQMMMADDHTGYGERRNIELADGTQVTLGSATAIDVCYSAQARQLLLRTGEIFIVTAPDSADRPFLVQTTRGSVQALGTRFNVRESGEQIQVAVQDGAVAIRPAGMNPGDVVRLDAGQQTCFDHTKVEAAEALQISATAWTRGLLVAERMRLEDFLVELGRYRSGVLRCDPAVRDLIVSGVYSLDDTDQSLRLLAQALPVQVQTVTRWWTIVGPRPMK”, the “soluble on expression in E. coli” value is listed as “not soluble”.

For “SFGCLVAGRLVQTAAQQVAEDKFVFDLPDYESINHVVVFMLGTIPFPEGMGGSVYFSYPDSNGMPVWQLLGFVTNGKPSAIFKISGLKSGEGSQHPFGAMNIVRTPSVAQIGISVELLDSMAQQTPVGNAAVSSVDSFTQFTQKMLDNFYNFASSFAVSQAQMTPSPSEMFIPANVVLKWYENFQRRLAQNPLFWKT”, the “soluble on expression in E. coli” value was “soluble”.

Take “MGSDKIHHHHHHMWTGFFSKSGTGIAEERHQNRRACTDVPLLAERNSKHPDRPYGFAKYRQSGLDIYAWHGIYFFPRFPFIDIDCIRWVCAGLKAFKHYIRENGLPDLIHAHRMNYAGILAQKISQKYGIPYVVTEHSSTITRGLIRPHQWQPMEKAAAHASALLAVSRHFAHVLQHKYGCEWQYLPPTYWAEYSTDRLNKEKKTTNRISCSAPSRTFAVSKDTMSYSLPLPGRWHNARNCA”: the “soluble on expression in E. coli” value is on record as “not soluble”.

With “MLSNDILRSVRYILKANNNDLVRILALGNVEATAEQIAVWLRKEDEEGFQRCPDIVLSSFLNGLIYEKRGKDESAPALEPERRINNNIVLKKLRIAFSLKTDDILAILTEQQFRVSMPEITAMMRAPDHKNFRECGDQFLRYFLRGLAARQHVKKG”, the “soluble on expression in E. coli” value is “soluble”.

For “MPQTERQLRVWIEGATGRRIGDNFMDGLKDGVILCELINKLQPGSVQKVNDPVQNWHKLENIGNFLRAIKHYGVKPHDIFEANDLFENTNHTQVQSTLIALASQAKTK”, the “soluble on expression in E. coli” value is “soluble”.

For the sequence “MGSDKIHHHHHHMVKSNICGGSTMTQTLPKLVTFEQFIEWYPSNGARYELHKGVIVEMPPPSGEHENVVGFLAAQITLQFLQMGLPFCIPKTAFVKIQSNNSTYSPDILLLNHDNLVNEPLWSKQSTVIQAASIPLAVEVVSQCVARVPRVEATDEPVRVSTNWRDDYYDKFRDYEEMGIPEYWIVDYAAIGGKRFTGNPKQKTITICELVEGDYQMTVFRENNFVVSPLFPQLNLTAQQIFDSAL”, the “soluble on expression in E. coli” value is “not soluble”.

“MNRFIMANSQQCLGCHACEVACVMAHNDERHVLTSQRYQPRITVIKHQHQRSAVTCHHCEDAPCARSCPNGAIAHINDSVQVNAQKCIGCKSCVVACPFGTMQMVLTPVAPNQFKASAHKCDLCQGREQGPACVENCPADALQLVTEDSLTRLAKTRRLRTARQEIRPWHTVDTQHSGAASSKAERMQATPPRGEPDKLAIEARKTTFEEIYLPFRAAQAEREASRCLTCGEHSICEWTCPLHNHIPQWIELVKAGDIDAAVELSHQTNCLPEITGRVCPQDRLCEGACTLRDEYGAVTIGNIERYISDRALSKGWRPDLSDVQKSDKRVAIIGAGPAGLACADVLARHGVSATVYDRHPEIGGLLTFGIPAFKLDKSLLARRREIFSAMGIRFELNCEVGKDISLETLLESYDAVFVGVGTYRSMKADLPNEDAPGVYDALPFLIANTKQVMGLPALPDEPFIDTAGLNVVVLGGGDTAMDCVRTALRHGAANVTCAYRRDEANMPGSKKEVKNAREEGANFEFNVQPVELVLDTHGRASGIRFLRTRLGEPDGQGRRRPVPVPDSEFVMPADAVIMAFGFHPHGMSWLESHGVKVDNWGRIAASVESEFRYQTSNPKIFAGGDAVRGADLVVTAMAEGRHAAQGILDWLAK”: the “soluble on expression in E. coli” value was “not soluble”.

As for “MRGFLFSMAQHFSLSAEARHLSIQVDELSDVEILSLLKTARWGNADNINDIECPHCHVRHEAYFIKTRQQWQCKHCCYRFSITAGTIFHLAKLSLRKILKALRYFALKSKGLSAIELSHEINVQYKTAWGLRHKFREALDKTKDLTPLKDEVHIDGAYTNYYIRPKNFRHKRIDRRKKRYQREDKSCVLVFRQRAANQAQMKGADRSIVALIKEENTQDVLDLTQRLVKQGSTIHTDENPAYDSLQFLYDLWRVNHSQEYCSIEGITNNLAESFFARFRRMIIGVHHKMANRYMLYYANEIAWREDNRLKTDREKLNDVLQRCIKTKPSRHFTGYWQGSKKSPETFGLESINASNDSHYLIAALEHHHHHH”, the “soluble on expression in E. coli” value is on record as “not soluble”.

Take “MGSDKIHHHHHHMATLKRIWLALNPQEAAAWQALLTTAGLAADRQVDYTVGIFEGETLLATGSLSGNIIKEVAVTPATQHENLLAQVIQALLDRLDDDGVTHSFVYTKPTTVKFFLSLGFKQLAATDAVVLLERGYPNLTDYVASLEKQRRPEKPAAAIVMNANPITRGHAYLIETAAKVNPVVYVFVLSAERSLFTADERLALVRKVAARWPNVVVLPTNDYMVSNTTFPSYFLKERADADVAAVQARLDAALFKQAIAPVLGITRRYVGEEPLSPVTAIYNRELAATFGSAIELIVVPRLMIDGDVVSATRVRAAMAQQDWKTVQQLVYPEVYQEIKERSTHGN”: the “soluble on expression in E. coli” value was “not soluble”.

“MGSDKIHHHHHHMTTPTPVRAIVPTWLYEGLGLLVANPKVGKSTLMLQIVVAVTKGGEMWGQSVPRAKVLMIDLETNERRLRRKLEQAGAVGIESGWLLYATSWPRGLLGIDEIANTLDRDPEIKLVVIDTLQRFRDPGAGKQNAYAADYEALGPLQQLCRDRPGLAIVCVHHKRKSISDDPIDSISGSAAIAGACDSIWIMSRKGSEYTLHIQGRDWERDEDTFPIERVDQGWQLVNGPRYSSNEAEVLKHLEISGGMTGPQLGEALGIHRVSAYERLKRMADRGLVRFAGEHWHVS”: the “soluble on expression in E. coli” value is given as “not soluble”.

For “FAVSSELSACGRARTYRVEGQLFYGSVEDFMAAFDFREPLERVTIDVSRAHIWDISSVQALDMAVLKFRREGAEVRIVGMNEASETLVDRLALHDRPGALDRLTAH”, the “soluble on expression in E. coli” value is on record as “not soluble”.

These data come from the DeepSol protein solubility set.
